Measurements published in EP2168984B1.

Tests used:
Assay in all cases: cell-based or functional assay
[1] = target: Baboon IL-12 (baboon)
[2] = target: Cyno IL-12 (cynomolgus monkey)
[3] = target: Rhesus IL-12 (rhesus monkey) (UniProt P48091)
[4] = target: recombinant human IL-12 (human) (UniProt P29459)
[5] = target: murine IL-12 (mouse) (UniProt P43431)
Chain of murine IL-12 (mouse) (P43431 23-215, chain 1 of 2): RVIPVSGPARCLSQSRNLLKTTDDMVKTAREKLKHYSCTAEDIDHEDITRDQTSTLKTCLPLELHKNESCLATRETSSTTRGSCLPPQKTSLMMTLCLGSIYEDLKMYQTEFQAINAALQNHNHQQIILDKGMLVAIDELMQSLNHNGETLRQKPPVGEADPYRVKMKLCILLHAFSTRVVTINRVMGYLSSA
Chain of murine IL-12 (mouse) (P43432 23-335, chain 2 of 2, further chain): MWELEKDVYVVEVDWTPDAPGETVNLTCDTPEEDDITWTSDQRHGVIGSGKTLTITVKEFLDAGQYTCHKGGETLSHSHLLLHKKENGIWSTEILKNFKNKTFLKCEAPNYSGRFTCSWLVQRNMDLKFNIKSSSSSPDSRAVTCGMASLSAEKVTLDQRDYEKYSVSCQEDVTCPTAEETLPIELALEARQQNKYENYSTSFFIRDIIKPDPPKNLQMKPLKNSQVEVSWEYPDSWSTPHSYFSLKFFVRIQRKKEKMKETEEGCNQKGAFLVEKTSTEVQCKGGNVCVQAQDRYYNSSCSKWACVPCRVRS

Chain of Rhesus IL-12 (rhesus monkey) (P48091 23-219, chain 1 of 2): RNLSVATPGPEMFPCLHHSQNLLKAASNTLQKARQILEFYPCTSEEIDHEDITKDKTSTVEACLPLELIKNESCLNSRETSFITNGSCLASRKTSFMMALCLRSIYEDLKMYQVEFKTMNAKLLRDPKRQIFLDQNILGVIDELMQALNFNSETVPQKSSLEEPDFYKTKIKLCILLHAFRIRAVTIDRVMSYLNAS
Chain of Rhesus IL-12 (rhesus monkey) (P48095 23-328, chain 2 of 2, further chain): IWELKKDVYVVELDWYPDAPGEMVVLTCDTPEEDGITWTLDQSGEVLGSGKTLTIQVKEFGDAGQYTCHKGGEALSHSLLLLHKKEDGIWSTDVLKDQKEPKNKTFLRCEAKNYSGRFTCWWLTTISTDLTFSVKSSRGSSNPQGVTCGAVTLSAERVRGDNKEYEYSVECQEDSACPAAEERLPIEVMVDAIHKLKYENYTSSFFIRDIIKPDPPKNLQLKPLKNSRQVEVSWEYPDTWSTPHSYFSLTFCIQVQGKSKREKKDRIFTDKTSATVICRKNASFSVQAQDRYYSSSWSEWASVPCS
Chain of recombinant human IL-12 (human) (P29459 23-219, chain 1 of 2): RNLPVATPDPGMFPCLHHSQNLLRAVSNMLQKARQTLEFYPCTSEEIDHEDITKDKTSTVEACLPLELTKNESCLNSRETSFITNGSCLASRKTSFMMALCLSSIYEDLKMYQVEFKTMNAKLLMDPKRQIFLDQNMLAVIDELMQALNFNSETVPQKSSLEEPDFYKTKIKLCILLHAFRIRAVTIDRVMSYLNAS
Chain of recombinant human IL-12 (human) (P29460 23-328, chain 2 of 2, further chain): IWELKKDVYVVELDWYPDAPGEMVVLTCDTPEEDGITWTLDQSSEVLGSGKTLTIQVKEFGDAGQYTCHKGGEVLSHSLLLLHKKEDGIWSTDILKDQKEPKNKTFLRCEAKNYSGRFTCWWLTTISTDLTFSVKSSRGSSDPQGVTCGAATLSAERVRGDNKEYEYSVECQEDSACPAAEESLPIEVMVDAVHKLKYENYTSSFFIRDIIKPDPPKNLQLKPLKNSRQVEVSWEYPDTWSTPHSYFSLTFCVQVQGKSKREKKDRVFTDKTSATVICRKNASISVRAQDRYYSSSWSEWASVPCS

Substance: C8.6.2 (antibody)
- IC50 (M), species cross reactivity bioassay [1]: 2e-10 M
- IC50 (M), species cross reactivity bioassay [2]: 1.2e-10 M
- IC50 (M), species cross reactivity bioassay [3]: 1e-10 M
- IC50 (M), species cross reactivity bioassay [4]: 5e-11 M

Substance: C17.15 (antibody)
- IC50 (M), species cross reactivity bioassay [5]: 3e-11 M
- PHA blast Assay IC50 [5]: 14 pM
